Reference: paper PMC12102759 (2025)

B1: NOTCH4 peptide 1606-1621 (Neurogenic locus notch homolog protein 4), 16-mer library wild type / NSP9 (ORF1ab Nsp9, residues 4141-4253) (parent complex)
chain 1: QGAWLGAPEPWEPLLD
chain 2: NNELSPVALRQMSCAAGTTQTACTDDNALAYYNTTKGGRFVLALLSDLQDLKWARFPKSDGTGTIYTELEPPCRFVTDTPKGPKVKYLYFIKGLNNLNRGMVLGSLAATVRLQ
B2: ICA1L peptide 451-466 (Islet cell autoantigen 1-like protein), 16-mer library wild type / NSP16 (ORF1ab Nsp16, residues 6799-7088) (parent complex)
chain 1: QDMSAWFNLFADLDPL
chain 2: SSQAWQPGVAMPNLYKMQRMLLEKCDLQNYGDSATLPKGIMMNVAKYTQLCQYLNTLTLAVPYNMRVIHFGAGSDKGVAPGTAVLRQWLPTGTLLVDSDLNDFVSDADSTLIGDCATVHTANKWDLIISDMYDPKTKNVTKENDSKEGFFTYICGFIQQKLALGGSVAIKITEHSWNADLYKLMGHFAWWTAFVTNVNASSSEAFLIGCNYLGKPREQIDGYVMHANYIFWRNTNPIQLSSYSLFDMSKFPLKLRGTAVMSLKEGQINDMILSLLSKGRLIIRENNRVVI

Variants of: B1
Experiment: bait immobilised on MaxiSorp plates (10 µg), library pre-cleared on GST, 2 h binding at 4 °C, five washes; one round per day, days 1-4; value from days 2 and 3

Row | Variant | screen value
1 | chain 1 E12M | 0.00442 average fractional NGS count over selection days 2 and 3 (reads of this peptide / all reads for the bait, averaged over …
2 | chain 1 E12V | 0.00994 average fractional NGS count over selection days 2 and 3 (reads of this peptide / all reads for the bait, averaged over …
3 | chain 1 E12T | 0.00258 average fractional NGS count over selection days 2 and 3 (reads of this peptide / all reads for the bait, averaged over …
4 | chain 1 E12H | 8.76e-05 average fractional NGS count over selection days 2 and 3 (reads of this peptide / all reads for the bait, averaged over …
5 | chain 1 E12I | 0.000686 average fractional NGS count over selection days 2 and 3 (reads of this peptide / all reads for the bait, averaged over …
6 | chain 1 E12N | 0.00209 average fractional NGS count over selection days 2 and 3 (reads of this peptide / all reads for the bait, averaged over …
7 | chain 1 P10T | 0.00164 average fractional NGS count over selection days 2 and 3 (reads of this peptide / all reads for the bait, averaged over …
8 | chain 1 P10H | 0.000471 average fractional NGS count over selection days 2 and 3 (reads of this peptide / all reads for the bait, averaged over …
9 | chain 1 P10E | 0.00264 average fractional NGS count over selection days 2 and 3 (reads of this peptide / all reads for the bait, averaged over …
10 | chain 1 P10A | 0.000635 average fractional NGS count over selection days 2 and 3 (reads of this peptide / all reads for the bait, averaged over …
11 | chain 1 P10V | 0.00245 average fractional NGS count over selection days 2 and 3 (reads of this peptide / all reads for the bait, averaged over …
12 | chain 1 P10G | 0.000535 average fractional NGS count over selection days 2 and 3 (reads of this peptide / all reads for the bait, averaged over …
13 | chain 1 P10M | 0.0078 average fractional NGS count over selection days 2 and 3 (reads of this peptide / all reads for the bait, averaged over …
14 | chain 1 P10K | 0.00223 average fractional NGS count over selection days 2 and 3 (reads of this peptide / all reads for the bait, averaged over …
15 | chain 1 P10Q | 0.000676 average fractional NGS count over selection days 2 and 3 (reads of this peptide / all reads for the bait, averaged over …
16 | chain 1 P10R | 0.00113 average fractional NGS count over selection days 2 and 3 (reads of this peptide / all reads for the bait, averaged over …
17 | chain 1 P10I | 0.00391 average fractional NGS count over selection days 2 and 3 (reads of this peptide / all reads for the bait, averaged over …
18 | chain 1 P10W | 0.00034 average fractional NGS count over selection days 2 and 3 (reads of this peptide / all reads for the bait, averaged over …
19 | chain 1 P10D | 0.00968 average fractional NGS count over selection days 2 and 3 (reads of this peptide / all reads for the bait, averaged over …
20 | chain 1 W11T | 0.000139 average fractional NGS count over selection days 2 and 3 (reads of this peptide / all reads for the bait, averaged over …
21 | chain 1 W11P | 0.0013 average fractional NGS count over selection days 2 and 3 (reads of this peptide / all reads for the bait, averaged over …
22 | chain 1 W11E | 0.00215 average fractional NGS count over selection days 2 and 3 (reads of this peptide / all reads for the bait, averaged over …
23 | chain 1 W11F | 0.0024 average fractional NGS count over selection days 2 and 3 (reads of this peptide / all reads for the bait, averaged over …

Row | Variant | screen value
24 | chain 1 W11Q | 0.00182 average fractional NGS count over selection days 2 and 3 (reads of this peptide / all reads for the bait, averaged over …
25 | chain 1 W11G | 0.0061 average fractional NGS count over selection days 2 and 3 (reads of this peptide / all reads for the bait, averaged over …
26 | chain 1 W11A | 0.00423 average fractional NGS count over selection days 2 and 3 (reads of this peptide / all reads for the bait, averaged over …
27 | chain 1 W11H | 0.00345 average fractional NGS count over selection days 2 and 3 (reads of this peptide / all reads for the bait, averaged over …
28 | chain 1 W11V | 0.000951 average fractional NGS count over selection days 2 and 3 (reads of this peptide / all reads for the bait, averaged over …
29 | chain 1 W11M | 0.0273 average fractional NGS count over selection days 2 and 3 (reads of this peptide / all reads for the bait, averaged over …
30 | chain 1 Q1Y | 0.00151 average fractional NGS count over selection days 2 and 3 (reads of this peptide / all reads for the bait, averaged over …
31 | chain 1 Q1D | 0.000709 average fractional NGS count over selection days 2 and 3 (reads of this peptide / all reads for the bait, averaged over …
32 | chain 1 Q1W | 0.000692 average fractional NGS count over selection days 2 and 3 (reads of this peptide / all reads for the bait, averaged over …
33 | chain 1 Q1A | 0.00674 average fractional NGS count over selection days 2 and 3 (reads of this peptide / all reads for the bait, averaged over …
34 | chain 1 Q1M | 0.00503 average fractional NGS count over selection days 2 and 3 (reads of this peptide / all reads for the bait, averaged over …
35 | chain 1 Q1N | 0.00294 average fractional NGS count over selection days 2 and 3 (reads of this peptide / all reads for the bait, averaged over …
36 | chain 1 Q1F | 0.000338 average fractional NGS count over selection days 2 and 3 (reads of this peptide / all reads for the bait, averaged over …
37 | chain 1 L5F | 0.000119 average fractional NGS count over selection days 2 and 3 (reads of this peptide / all reads for the bait, averaged over …
38 | chain 1 L14T | 0.00105 average fractional NGS count over selection days 2 and 3 (reads of this peptide / all reads for the bait, averaged over …
39 | chain 1 L14W | 0.000273 average fractional NGS count over selection days 2 and 3 (reads of this peptide / all reads for the bait, averaged over …
40 | chain 1 L14K | 0.00411 average fractional NGS count over selection days 2 and 3 (reads of this peptide / all reads for the bait, averaged over …
41 | chain 1 L14F | 0.00284 average fractional NGS count over selection days 2 and 3 (reads of this peptide / all reads for the bait, averaged over …
42 | chain 1 L14Y | 0.00146 average fractional NGS count over selection days 2 and 3 (reads of this peptide / all reads for the bait, averaged over …
43 | chain 1 L14R | 0.000211 average fractional NGS count over selection days 2 and 3 (reads of this peptide / all reads for the bait, averaged over …
44 | chain 1 L14P | 0.000127 average fractional NGS count over selection days 2 and 3 (reads of this peptide / all reads for the bait, averaged over …
45 | chain 1 L14H | 0.000429 average fractional NGS count over selection days 2 and 3 (reads of this peptide / all reads for the bait, averaged over …

Variants of: B2
Experiment: as above

Row | Variant | screen value
46 | chain 1 F7L | 0.000815 average fractional NGS count over selection days 2 and 3 (reads of this peptide / all reads for the bait, averaged over …
47 | chain 1 F7W | 0.000183 average fractional NGS count over selection days 2 and 3 (reads of this peptide / all reads for the bait, averaged over …
48 | chain 1 D12W | 0.00015 average fractional NGS count over selection days 2 and 3 (reads of this peptide / all reads for the bait, averaged over …
49 | chain 1 D12Y | 0.000481 average fractional NGS count over selection days 2 and 3 (reads of this peptide / all reads for the bait, averaged over …
50 | chain 1 D12H | 0.0543 average fractional NGS count over selection days 2 and 3 (reads of this peptide / all reads for the bait, averaged over …
51 | chain 1 L16V | 0.000224 average fractional NGS count over selection days 2 and 3 (reads of this peptide / all reads for the bait, averaged over …
52 | chain 1 L16Y | 0.00657 average fractional NGS count over selection days 2 and 3 (reads of this peptide / all reads for the bait, averaged over …
53 | chain 1 L16R | 0.000401 average fractional NGS count over selection days 2 and 3 (reads of this peptide / all reads for the bait, averaged over …
54 | chain 1 L16M | 0.0149 average fractional NGS count over selection days 2 and 3 (reads of this peptide / all reads for the bait, averaged over …
55 | chain 1 L16T | 0.000115 average fractional NGS count over selection days 2 and 3 (reads of this peptide / all reads for the bait, averaged over …
56 | chain 1 L16W | 0.000423 average fractional NGS count over selection days 2 and 3 (reads of this peptide / all reads for the bait, averaged over …
57 | chain 1 S4T | 0.00139 average fractional NGS count over selection days 2 and 3 (reads of this peptide / all reads for the bait, averaged over …
58 | chain 1 A11G | 9.42e-05 average fractional NGS count over selection days 2 and 3 (reads of this peptide / all reads for the bait, averaged over …
59 | chain 1 D14P | 0.000203 average fractional NGS count over selection days 2 and 3 (reads of this peptide / all reads for the bait, averaged over …
60 | chain 1 D14E | 0.00108 average fractional NGS count over selection days 2 and 3 (reads of this peptide / all reads for the bait, averaged over …
61 | chain 1 N8T | 0.000466 average fractional NGS count over selection days 2 and 3 (reads of this peptide / all reads for the bait, averaged over …
62 | chain 1 N8H | 0.00331 average fractional NGS count over selection days 2 and 3 (reads of this peptide / all reads for the bait, averaged over …
63 | chain 1 N8G | 0.000503 average fractional NGS count over selection days 2 and 3 (reads of this peptide / all reads for the bait, averaged over …
64 | chain 1 A5T | 0.00049 average fractional NGS count over selection days 2 and 3 (reads of this peptide / all reads for the bait, averaged over …
65 | chain 1 M3I | 0.00221 average fractional NGS count over selection days 2 and 3 (reads of this peptide / all reads for the bait, averaged over …
66 | chain 1 L13W | 0.0001 average fractional NGS count over selection days 2 and 3 (reads of this peptide / all reads for the bait, averaged over …
67 | chain 1 L13M | 0.00451 average fractional NGS count over selection days 2 and 3 (reads of this peptide / all reads for the bait, averaged over …
68 | chain 1 L13F | 8.42e-05 average fractional NGS count over selection days 2 and 3 (reads of this peptide / all reads for the bait, averaged over …
69 | chain 1 D2S | 0.000218 average fractional NGS count over selection days 2 and 3 (reads of this peptide / all reads for the bait, averaged over …
70 | chain 1 P15Q | 0.000173 average fractional NGS count over selection days 2 and 3 (reads of this peptide / all reads for the bait, averaged over …
71 | chain 1 P15V | 0.000993 average fractional NGS count over selection days 2 and 3 (reads of this peptide / all reads for the bait, averaged over …
72 | chain 1 P15T | 0.00148 average fractional NGS count over selection days 2 and 3 (reads of this peptide / all reads for the bait, averaged over …
73 | chain 1 P15N | 0.000142 average fractional NGS count over selection days 2 and 3 (reads of this peptide / all reads for the bait, averaged over …
74 | chain 1 P15G | 0.000662 average fractional NGS count over selection days 2 and 3 (reads of this peptide / all reads for the bait, averaged over …
75 | chain 1 L9M | 0.111 average fractional NGS count over selection days 2 and 3 (reads of this peptide / all reads for the bait, averaged over …
